Experimental data from the nanobody polyreactivity screen of Harvey et al. (2022).

Assay: yeast display, Sf9 membrane polyspecificity reagent, FACS + sequencing; frameworks hold sequencing errors
Method in brief: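 Synthetic nanobody libraries on Saccharomyces cerevisiae BJ5465 were galactose-induced for 36–48 hours, stained 1 hour at 4 °C with 10% biotinylated, detergent-solubilized Sf9 membrane reagent and enriched on streptavidin microbeads. FACS then separated cells into low and high (top ~1%) gates by anti-HA (expression) and streptavidin (reagent binding) fluorescence. Genes were colony-PCR amplified, MiSeq 2 × 250 sequenced and CDR-length filtered. A clone's polyreactivity label is that of its gate of origin.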

| Sequence | polyreactivity (PSR sort gate) |
| --- | --- |
| QVHLVESGGGLVQAGGSLRLSCAASGSNFVGNAMGWYRQAPGKERELVATISNSGGRTYYADSVKGRFTISRDNAKNTVYLQMNSLKPEDTAVYYCAADHPAFGPGYSFDFWGQGTQVTVSS | low polyreactivity |
| QVHLVESGGGLVQAGGSLRLSCAASGSTFAIYAMVWYRQAPGKERELVAAIRQRAGSTYYADSVKGRFTISRDNAKNTVYLQMNSLKPEDTAVHYCATATRPISRGYWGQGTQVTVSS | low polyreactivity |
| QVHLVESGGGLVQAGGSLRLSCAASGSTFFIYTMGWYRQAPGKEREFVAAISWTGGRTYYADSVKGRFTISRDNAKNTVYLQMNSLKPEDTAVYYCAARYKYSSYDYWGEGTQVTVSS | high polyreactivity |
| QVHLVESGGGLVQAGGSLRLSCAASGSTFFYYAMGWYRQAPGKERELVAAISNSGGNTFYADSVKGRFTISRDNAKNTVYLQMNSLKPEDTAVYYCAADEIGHFQWRDGDYWGQGTQVTVSS | low polyreactivity |
| QVHLVESGGGLVQAGGSLRLSCAASGSTFGRYTMGWYRQAPGKERELVAAITSGGGSTYYADSVKGRFTISRDNAKNTVYLQMNSLKPEDTAVYYCAARSLVQDHAYGYNYWGQGTQVTVSS | low polyreactivity |
| QVHLVESGGGLVQAGGSLRLSCAASGSTFGSNAMGWYRQAPGKERELVAAIRGIVGSKYYADSVKGRFTISRDNAKNTVYLLMNSLKPEDTAVYYCAADIDFERDRYVYWGQGTQVTVSS | low polyreactivity |
| QVHLVESGGGLVQAGGSLRLSCAASGSTFKRYAMGWYRPAPGKERELVAAIRRGGITNYADSVKGRFTISRDNAKNTVYLQMNSLKPEDTAVYYCAKDGVTYPYSYEYDYWGQGTQVTVSS | low polyreactivity |
| QVHLVESGGGLVQAGGSLRLSCAASGSTFLANTMGWYRQAPGKERELVAAITRRGGSTRYADSVKGRFTISRDNAKNTVFLEMNSLKPEDTAVYYCAAPWFRDTRGYSLYDYWGQGTQVTVSS | high polyreactivity |
| QVHLVESGGGLVQAGGSLRLSCAASGSTFQFNAMGWYRQAPGKERELVATISDGGSTSYADSVKGRFTISRDNAKNTVYLQMNSLKPEDTAVYFCARDRFYDFLRVDYWGQGTQVTVSS | low polyreactivity |
| QVHLVESGGGLVQAGGSLRLSCAASGSTFRDYDMGWYRQAPGKERELVAAISLSGGLTHYADSVKGRFTISRDNGKNTVYLQMNSLKPEDTAVYYCAARNTGPVQYYYWGQGTQVTVSS | low polyreactivity |
| QVHLVESGGGLVQAGGSLRLSCAASGSTFSGYAMGWDRQAPGKDREFVATITSTGSTNYADSVKGRFTSSRDNAKNTVYLQMNSLNPEENAVYYCHSRYWFVERYFLHYASVRYDYWGQGTKVTVSS | low polyreactivity |
| QVHLVESGGGLVQAGGSLRLSCAASGSTFTSYAMGWYRQAPGKERELVATISKISGSTYYADSVKGRFTISRDNAKNTVYLQMNSLKPEDTAVYYCAAKQGWVQSSILWYRAYGTLNVRRERMDYWGQGTQVTVSS | high polyreactivity |
| QVHLVESGGGLVQAGGSLRLSCAASGSTFYANAMGWYRQAPGKDRELVAVIRWSGGSTYYADSVKGRFTISRDNAKNTDYFQINSLKPEDTAVYYCNADFYRVAYLRRYSHFDYWGQGTQVTVSS | high polyreactivity |
| QVHLVESGGGLVQAGGSLRLSCAASGSTFYIYAKGWYRQAPGKERELVAAIDWTGSTYYADSVKGRFTISRDNAKNTVYLQMNSLKPEDPAVYDCAAYYDLEDDSYRLNSWGQGTQVTVSS | high polyreactivity |
| QVHLVESGGGLVQAGGSLRLSCAASGSTFYPYSMGWYRQAPGKERELVAAISSGGSTSYADSVKGRFTISRDNAKNTVYLQMNSLKPDDTAVYYCAALYRIFSYDYWGQGTQVTVSS | low polyreactivity |
| QVHLVESGGGLVQAGGSLRLSCAASGSTIRYYAMGWYRQAPGKERELVAAITKSGGSTYYADSVKGRFTISRDNAKNTVYLQMNSLKPEDTAVYYCAAFRRWYYPALSEHDYWGQGTQGTVSS | low polyreactivity |
| QVHLVESGGGLVQAGGSLRLSCAASGSTIVRYGMGWYRQAPGKERELVAAITSTGDSTYYADSVKGRFTISRDNAKNTVYLQMNSLKPEDTAVYYCATQSSVLSWWYDYWGQGTEVTVSS | low polyreactivity |
| QVHLVESGGGLVQAGGSLRLSCAASGSTSAYYVMGWYRQAPGKERELVAAIDFSGDSTYYADSVKGRFTISRDNAKNTVYLQMNSLKPEDTAVYYCAAELFYYSSLVTYEYWGQGTQVTVSS | high polyreactivity |
| QVHLVESGGGLVQAGGSLRLSCAASGTIFGEYAMGWYRQAPGKERELVARISVSGTGTYYADSVKGRFTISRVNAKNTVYLQMNSLKPEDTAVYYSATRLYTIRWGGVSYDYDYWGQGTQVTVSS | high polyreactivity |
| QVHLVESGGGLVQAGGSLRLSCAASGTTFGDYAMGWYRQAPGKERELVAAISLSAGSTYYADSVKGRFTISRDNAKNTVYLQMNSLKPEDTAVYYCAAEYQYHWAYIYYYWGQGTQVTLSS | high polyreactivity |
| QVHLVESGGGLVQAGGSLRLSCAASGVIFSSYAMGWYRQAPGKERELVAAISTGDGSTTYADSVKGRFTISRDNAKNTVYLQMNSLIPEDTAVYYCNVKYRSSYRTDFDYWGQGTQVTVSS | low polyreactivity |
| QVHLVESGGGLVQAGGSLRLSCAASGYIFRRYAMGWYRQAPGKERELVAAISFSGGSTYYADSVKGRFTISRDNAKNSVYIQMNSLKPDDTAVYYCAGLSLLRYDYWGQGTQVTVSS | high polyreactivity |

| Sequence | polyreactivity (PSR sort gate) |
| --- | --- |
| QVHLVESGGGLVQAGGSLRLSCAASGYTFGYYTMGWYRQAPGKERELFASIDSGGGTNYADSVKGRFTISRDNAKNTVFLQMNSLKPEETAVYYCAVDSYQTGVYFYYVYWDFDLGYWGQVTQVTVSS | low polyreactivity |
| QVHLVESGGGLVQAGGSLRLSCAASGYTFRYYAMGWYRQAPGKERELVAAINWSGGSTYYADSVKGRFTISRDNAKNTVYLQMNSLTPEDTAVYYCAADPDGDLDIDYDYWGQGTQVTVSS | low polyreactivity |
| QVHLVESGGGLVQAGGSLRLSCAASRGIFHYYAMGWYRQAPGNERELVAAISWNTGSTYYADSVKGRFTISRDNAKNTVYLQMNSLKPEDTAVYYCAASYRSPWMRYDYWGQGTQVTVSS | high polyreactivity |
| QVHLVESGGGLVQAGGSLRLSCAATGRIFVPYVMGWYRQAPGKERELVASISDSDTSTYYADSVKGRFTISRDNAKNTVYLQMNSLKPEDNAVYYCNVDYWGQGTQVTVSS | low polyreactivity |
| QVHLVESGGGLVQAGGSLRLSCAATGSIFDQNAMGWYRQAHGKVRELVAAITRGGSTKYADSVKGRFTISRDNAKNTVYLQMNSLKPEDTAVYYCARTARRRYQPYEYWGQGTQVTVSS | low polyreactivity |
| QVHLVESGGGLVQAGGSLRLSCAATGSTFPNAMGWYRQAPGKERELVAAITYGGGSTYYADSVKGRFTISRDNAKNTVYLQMNSLIPEDTAVYYCNAPSRLSTIFYSGYDYWGQGTQVTVSS | low polyreactivity |
| QVHLVESGGGLVQAGGSLRLSCAATGSTFRYNAMGWYRQAPGKERELVAAISWRGGSTYYADSVKGRFTISRDNAKNTVYLQMNSLKPEDTAVYYCAADRYPSTTYPLSDYNYWGQGTQVTVSS | high polyreactivity |
| QVHLVESGGGLVQAGGSLRLSCAATGYIFDSYAMGWYRPAPGKEREFVAAISGSDGSTYYADSVKGRFTISRDNAKNTVYLQMNSLKPEDTAVYYCAADPYYGEMEYWGQGTQVTVSS | low polyreactivity |
| QVHLVESGGGLVQAGGSLRLSCADSGFIFWSYVMGWNRQAPGKESELVAAIDYSGASTYYADSVKGRFTISRDNAKNTVSLQMNSLKPEDTAVYYCNAVAYYPYGYDYWGQGTQVTVSS | low polyreactivity |
| QVHLVESGGGLVQAGGSLRLSCADSGRTFGTYAMGWYRQAPGKERELVAAISSGGSTYADSVKGRFTISRDNAKNTVYLQMNSLKPVDTAVYYCNADFSARNYHYYPRRFKYYYWGQGTQVTVSS | high polyreactivity |
| QVHLVESGGGLVQAGGSLRLSCDASGFTFYWYAMGWYRQPPGKERELVAAISNRGGSKYYADSVKGRFTISRDNAKNTVYLQMNSLKPEDTAVYYCGAEWYGRMYYWGQGTQVTVSS | high polyreactivity |
| QVHLVESGGGLVQAGGSLRLSCDASGSIFTYYAIGWYRPAPGKERELVAAITNGVDSTYYADSVKGRFTISRDNAKNTVYLQINSLKPEDTAVYYCNADTVVEWFSPSREYDYWGQGTQVTVSS | low polyreactivity |
| QVHLVESGGGLVQAGGSLRLSFAASGRIFYYNAMGWYRQAHGKERELVAAIRGGCSTNYADSVKGRFTISRDNAKNTVYLQMNSLKPEDTAVYYCNTAVWGPHRYDYWGQGTQVTVSS | low polyreactivity |
| QVHLVESGGGLVQAGGSLRLSGAASGSISGLYAMGCYRQAPGKEREFVARIRWRGDSTYYADSVKGRFTISRDNAKNTVYLQMNSLKPEDTAVYYCAAGLYLFQIWFVNEYDYWGQGTQVTVSS | high polyreactivity |
| QVHLVESGGGLVQAGGSLRLSSAASGNIFESYALGWYRQAPGKERELVAAISGSGDSTNYADSVKGRFTISRDNAKNSVYLQMNSLKPEDTAVYYCAARPEVRHQYRRYDYWGQGTQVTVSS | low polyreactivity |
| QVHLVESGGGLVQAGGSLRLSSAASGRTFTAYTMGSYRQAPGKEREMVASISSGVTYADSVKGRFTISRDNAKNTVYLQMNSLKTVDTAVYYCAARLWYVQGYVPYVHHRFDYWGQGTQVTVSS | low polyreactivity |
| QVHLVESGGGLVQAGGSLRLSSAASGSIFIIYAMGWYRQAPGKERELVADITCRGGDTYYADSVKGRFTISRDNAKNTVYLQMNSLKPEDTAVYYCAARAGYPYTVQDVGVSAYDYWGQGTQVTVSS | low polyreactivity |
| QVHLVESGGGLVQAGGSLRLTCAASGFIFEYNAMGCYRQAPGKEREFVAAITSSGGSTYYADSVIGRFTISRDNAKNTVYLQMNSLKPEDTAVYYCARVRRSAYYKDYYYWGQGTQVTVSS | high polyreactivity |
| QVHLVESGGGLVQAGGSLRLTCAASGRIFAHYAMGWYRQAPGKERELVAAISSGGSTYYADSVKGRFTISRDNAKNTVYLQMNSVKPEDTAVYYCNKRPVRRKYDYWGQGTQVTVSS | low polyreactivity |
| QVHLVESGGGLVQAGGSLRLTCAASGRIFSSYAMGWYRQAPGKVRELVPAITRGGSTYYADSVKGRFTISRDNAKYTVYLQMNSLKPEDTGVYYCAGRQPYRYWFWGNEDFWGQGSQVTVSS | high polyreactivity |
| QVHLVESGGGLVQAGGSLRLTCAASGRILWSYAMGWYRQAPGKERELVAAITSGTRTNYADSVKGRFTISRDNAKNTVYLQMNSVKPEDTAVFSCNAVSLRYRFDYWGQGTQLTVSS | high polyreactivity |
